Test results as given in patent US20100136580A1 (Genentech, published 2010).

T1: GST-Dvl2PDZ fusion protein (human, UniProt O14641 248-364)
T1 construct: range 248-364; Made with the pGEX E. coli expression system; also called GST-PDZ fusion protein; not shown: glutathione S-transferase (GST) encoded by plasmid pGEX
T1 sequence (looked up): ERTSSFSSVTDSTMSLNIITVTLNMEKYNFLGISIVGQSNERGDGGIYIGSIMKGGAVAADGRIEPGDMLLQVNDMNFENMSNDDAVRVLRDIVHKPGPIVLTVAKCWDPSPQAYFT


Molecular target: T1, GST-Dvl2PDZ fusion protein
Experiment: phage display selection on GST-Dvl2PDZ
Method: The libraries were cycled through rounds of binding selection with a GST-Dvl2PDZ fusion protein coated on 96-well Maxisorp immunoplates as the capture target. Phage were propagated in E. coli XL1-blue with M13-KO7 helper phage and 10 μM IPTG. After four rounds of binding selection, individual phage clones were analyzed in a high-throughput phage ELISA, and positive clones were subjected to DNA sequence analysis.
We used decapeptide libraries fused to the C-terminus or N-terminus of the phage coat protein. The library contained NNK degenerate codons that encoded all 20 natural amino acids. The possible occurrence of amber stop codons in the degenerate codon also provided for the display of shorter peptides for the C-terminal library. Each library was cycled through four rounds of binding selection with immobilized GST-Dvl2PDZ fusion protein as the capture target.

Binder | binding result
TWMDYGWLDQGG [SEQ ID NO 87] | binds
SIVLWSDIPS [SEQ ID NO 121] | binds
SIVLWTDIPS [SEQ ID NO 123] | binds
GFLTHYGWLDGGG [SEQ ID NO 109] | binds
EMDLLWTDIP [SEQ ID NO 132] | binds
WVMLWSDLPA [SEQ ID NO 137] | binds
WVEYGWIDSGG [SEQ ID NO 83] | binds
VKYYGYIDGGG [SEQ ID NO 82] | binds
QLVELWSDIP [SEQ ID NO 136] | binds
QSHTCYGWIDGGG [SEQ ID NO 81] | binds
IKLVQYGWIDGGG [SEQ ID NO 111] | binds
GGRMALGWLDGGG [SEQ ID NO 88] | binds
ELWIDGPHVM [SEQ ID NO 134] | binds
SIIYYGWLDGGG [SEQ ID NO 99] | binds
EMITLWSDLP [SEQ ID NO 138] | binds
MWYVDYGWVDGGG [SEQ ID NO 98] | binds
TDYGWIDYPP [SEQ ID NO 90] | binds
TRFTNYGWLDGGG [SEQ ID NO 91] | binds
AMFHEYGWIDGGG [SEQ ID NO 110] | binds
YTKYYGWIDTGG [SEQ ID NO 86] | binds

Binder | binding result
IKLVQYGWIDGGG [SEQ ID NO 108] | binds
EMDLLWTDIP [SEQ ID NO 144] | binds
VSLINYGWIDGGG [SEQ ID NO 107] | binds
YTDYGWIDQSG [SEQ ID NO 103] | binds
EVLWSDFPPM [SEQ ID NO 119] | binds
EVLWADFPPM [SEQ ID NO 122] | binds
SLQWYGWIDSGG [SEQ ID NO 93] | binds
GLVLLWTDIP [SEQ ID NO 143] | binds
LKFYGWIDGGG [SEQ ID NO 106] | binds
TWIDGPYLLQ [SEQ ID NO 147] | binds
MVDYGWIDYWG [SEQ ID NO 112] | binds
HITVDYGWIDGGG [SEQ ID NO 114] | binds
TNLLWSDIPP [SEQ ID NO 125] | binds
AHTTFYGWIDGGG [SEQ ID NO 100] | binds
SIVLWSDIPS [SEQ ID NO 127] | binds
PEVWIDGPEI [SEQ ID NO 149] | binds
TLLHFYGYIDGGG [SEQ ID NO 85] | binds
LKFYGWIDGGG [SEQ ID NO 92] | binds
NLERWSDIPM [SEQ ID NO 145] | binds

Other lines, results leading:

binding result | Binder
binds | AWIVDYGWIDGGG [SEQ ID NO 89]
binds | WWVDYGFVDGGG [SEQ ID NO 105]
binds | WVMLWSDLPA [SEQ ID NO 139]
binds | LQLLWSDIPG [SEQ ID NO 131]
binds | SIVLWSDIPS [SEQ ID NO 140]
binds | SHWKYYGWIDGGG [SEQ ID NO 96]
binds | WISGWIDYPP [SEQ ID NO 95]
binds | AWIVDYGWIDGGG [SEQ ID NO 102]
binds | RRMLWSDIPG [SEQ ID NO 142]
binds | SMVLWWDVPS [SEQ ID NO 124]
binds | SHWKYYGWIDGGG [SEQ ID NO 101]
binds | EVLWSDFPPM [SEQ ID NO 128]
binds | GLVLLWDDFP [SEQ ID NO 130]
binds | SWETLWSDFP [SEQ ID NO 117]
binds | QQLLWSDIP [SEQ ID NO 120]
binds | ITDYGWVDGPG [SEQ ID NO 97]
binds | VNLVEYGWVDGGG [SEQ ID NO 116]
binds | VWGDSFEGRP [SEQ ID NO 148]
binds | VSLINYGWIDGGG [SEQ ID NO 94]
binds | LTMYGWIDGKG [SEQ ID NO 115]
binds | FTWRDYGWLDGGG [SEQ ID NO 84]
binds | EMITLWSDLP [SEQ ID NO 129]
binds | EVLWSDFPPM [SEQ ID NO 141]
binds | YTKYYGWIDTGG [SEQ ID NO 104]
binds | VKYYGYIDGGG [SEQ ID NO 113]
binds | NEQLLWTDIP [SEQ ID NO 118]
binds | SIVLWSDIPS [SEQ ID NO 135]
binds | WTNVLWTDIP [SEQ ID NO 133]
binds | SLLTIWSDIP [SEQ ID NO 146]
